# According to patent publication US7531500B2, “Preventing airway mucus production by administration of EGF-R antagonists” (The Regents of the University of California, priority 1998, dated 2009):
# B1: Ova: ovalbumin, grade V (Sigma), used to sensitize and challenge rats (protein, UniProt P01012 2-386, looked up)
# Ovalbumin: GSIGAASMEFCFDVFKELKVHHANENIFYCPIAIMSALAMVYLGAKDSTRTQINKVVRFDKLPGFGDSIEAQCGTSVNVHSSLRDILNQITKPNDVYSFSLASRLYAEERYPILPEYLQCVKELYRGGLEPINFQTAADQARELINSWVESQTNGIIRNVLQPSSVDSQTAMVLVNAIVFKGLWEKAFKDEDTQAMPFRVTEQESKPVQMMYQIGLFRVASMASEKMKILELPFASGTMSMLVLLPDEVSGLEQLESIINFEKLTEWTSSNVMEERKIKVYLPRMKMEEKYNLTSVLMAMGITDVFSSSANLSGISSAESLKISQAVHAAHAEINEAGREVVGSAEAGVDAASVSEEFRADHPFLFCIKHIATNAVLFFGRCVSP
# Columns and labels:
# NCI-H292 cells = experiment: Immunoassay of MUC5AC protein in NCI-H292 cells (Example 2); assay type: cell-based, human
# Protocol: Cell Culture. NCI-H292 cells, a human pulmonary mucoepidermoid carcinoma cell line, were grown in RPMI 1640 medium containing 10% fetal bovine serum, penicillin (100 U/ml), streptomycin (100 μg/ml) and Hepes (25 mM) at 37° C. in a humidified 5% CO2, water-jacketed incubator. Either 6-well culture plates or 8-chamber slides were used to culture the cells. […] The cells were then washed and incubated with fresh medium alone. Experiments were terminated at preselected times (for mRNA, 6 h and 12 h; for protein, 24 h). As controls, cells were incubated with medium alone for same time periods. […] In inhibition studies with blocking antibodies to EGF-R ligands, the supernatants were pretreated with anti-TGFα antibody (Calbiochem) or anti-EGF antibody for 30 min and then added to NCI-H292 cells. The role of oxygen free radicals was examined using scavengers of oxygen free radical DMSO (1%, Sigma), 1,3-dimethyl-2-thiourea (DMTU, 50 mM, Sigma), or superoxide dismutase (SOD, 300 U/ml, Sigma).
# Preparation of Cigarette Smoke Solution. Research cigarettes (code2R1, produced for the University of Kentucky Tobacco and Health Research Foundation) were used in the study. Cigarette smoke solution was prepared as previously described (Dusser et al. (1989) J. Clin. Invest. 84:900-906). In brief, cigarette smoke was withdrawn into a polypropylene syringe (35 ml) at a rate of one puff/min (10 times) and bubbled slowly into 20 ml of RPM11640 containing 50 mM Hepes buffer. The smoke solution was then titrated to pH 7,4 and used immediately after preparation.
# Immunoassay of MUC5AC Protein. MUC5AC protein was measured as described above. In brief, cell lysates were prepared with PBS at multiple dilutions, and 50 μl of each sample was incubated with bicarbonate-carbonate buffer (50 μl) at 40° C. in a 96-well plate (Maxisorp Nunc, Fisher Scientific, Santa Clara, Calif.), until dry. Plates were washed three times with PBS and blocked with 2% BSA (fraction V, Sigma) for 1 h at room temperature. Plates were again washed three times with PBS and then incubated with 50 μl of mouse monoclonal MUC5AC antibody (1:100) that was diluted with PBS containing 0.05% Tween 20. After 1 h, the wells were washed three times with PBS, and 100 μl horseradish peroxidase-goat anti-mouse IgG conjugate (1:10,000, Sigma) was dispensed into each well. After 1 h, plates were washed three times with PBS. Color reaction was developed with TMB peroxidase solution (Kirkegaard & Perry Laboratories, Gaithersburg, Md.) and stopped with 2N H2SO4. Absorbance was read at 450 nm.
# sensitized rats = experiment: Goblet cell production in ovalbumin-sensitized rats (asthma model); assay type: in vivo, rat; conditions: for Goblet cells in tracheal epithelium: counted over 2 mm basal lamina, 5 rats
# Protocol: Sensitization. Rats were sensitized on days 0 and 10 with intraperitoneal injections of ovalbumin (10 mg, grade V; Sigma, St. Louis, Mo.), complexed with 100 mg of aluminum hydroxide in 0.5 ml of sterile saline, Rats then rested for 10 days. On day 20, ovalbumin was delivered directly into the trachea; animals were challenged with 100 μl of 0.1% ovalbumin in saline by intratracheal instillation three times (days 20, 22 and 24). Rats were euthanized either without challenge (day 20), or 48 h after the third challenge (day 26). This procedure induced goblet cell metaplasia. To block the goblet cell hyperplasia, sensitized rats were pretreated with an EGF-R tyrosine kinase inhibitor, BIBX1522. On days of ovalbumin challenge (days 20, 22 and 24), sensitized rats were pretreated with BIBX1 522 (10 mg/kg, i.p., 1 h before the challenge) and then BIBX1522 was also instilled into the trachea together with ovalbumin (BIBX1522, 10^−5M, 100 μl). BIBX1522 was also injected i.p. every 24 h until the day before the rats were euthanized. After the animals were euthanized, the trachea was removed 48 h after the third challenge.
# Tissue preparation. At preselected times during anesthesia, the systemic circulation was perfused with 1% paraformaldehyde in DEPC-treated PBS at a pressure of 120 mmHg. The trachea was then removed and placed in 4% paraformaldehyde for 24 h. After fixation, trachea and lungs were embedded in either JB-4 plus monomer solution A for cell analysis or O.C.T. compound (Sakura Finetek U.S.A., Inc., Torrance, Calif.) for immunohistochemistry and in situ hybridization. The embedded tissues were cut as cross sections ([…] thick) and placed on slides.
# Cell analysis. We counted the total number of epithelial cells by counting epithelial cell nuclei over 2 mm of the basal lamina with an oil immersion objective lens (×1000 magnification). The linear length of the basal lamina under each analyzed region of epithelium was determined by tracing the contour of the digitized image of the basal lamina. After instillation of stimuli, “developing” goblet cells form. These cells have Alcian blue/PAS-positive granules, but the size of granules is small, and the number of cytoplasmic granules is few. We call these “developing” goblet cells “pre-goblet cells”, a stage before cells become mature goblet cells. Goblet cells are tall, cuboidal, goblet to low columnar in shape, with abundant Alcian blue/PAS-stained granules filling most of the cytoplasm between the nucleus and the luminal surface. Pre-goblet cells are defined as cells with smaller mucus-stained areas (<1/3 height in epithelium from basement membrane to luminal surface) or with sparsely and lightly Alcian blue/PAS-stained, small granules. Ciliated cells are recognized by their ciliated borders, lightly stained cytoplasm, and large round nuclei. Non-granulated secretory cells are columnar in shape and extend from the lumen to the basal lamina. The cytoplasm stains light pink color, and a few tiny PAS-positive and Alcian blue-negative granules are observed in the cytoplasm. Basal cells are small flattened cells with a large nucleus, located just above the basal lamina but not reaching the airway lumen.
# Quantification of goblet cell production. Goblet cell production, was determined by the volume density of Alcian blue/PAS-stained mucosubstances on the mucosal surface epithelium using a semi-automatic imaging system described elsewhere (Weber et al. (1984) Science 224:294-297). We measured the Alcian blue/PAS-positive stained area and the total epithelial area and expressed the data as the percentage of the total area stained by Alcian blue-PAS. The analysis was performed with the public domain NIH Image program (developed at the U.S. National Institute of Health and available from the Internet by anonymous FTP from zippy.nimh.gov or on floppy disk from the National Technical Information Service, Springfield, Va., part number PB95-500195GEI).
molecule,measurement,setting,value
IL-8: recombinant human IL-8 (Genzyme),"MUC5AC synthesis, stimulus alone without neutrophils","NCI-H292 cells; 1 h incubation, protein at 24 h, IL-8 10^-8 M, fMLP 10^-8 M, TNFα 20 ng/ml",no effect
"CNC(=S)NC [DMTU, 1,3-dimethyl-2-thiourea]","MUC5AC synthesis by supernatant of activated neutrophils, cigarette smoke and H2O2","NCI-H292 cells; DMSO 1%, DMTU 50 mM, SOD 300 U/ml",significantly inhibited
B1,% of AB/PAS-stained area,sensitized rats; Ova i.p. + i.t.,38.7 ± 6.2 %
same,Basal cells in tracheal epithelium,sensitized rats; Ova i.p. + i.t.,59.8 ± 2.9
same,Ciliated cells in tracheal epithelium,sensitized rats; Ova i.p. + i.t.,52.4 ± 7.1
same,Indeterminate cells in tracheal epithelium,sensitized rats; Ova i.p. + i.t.,2.6 ± 0.5
same,Pre-goblet cells in tracheal epithelium,sensitized rats; Ova i.p. + i.t.,36.0 ± 6.3
same,Secretory cells in tracheal epithelium,sensitized rats; Ova i.p. + i.t.,49.8 ± 4.2
same,Total cells in tracheal epithelium,sensitized rats; Ova i.p. + i.t.,238.8 ± 4.4
same,% of AB/PAS-stained area,sensitized rats; Ova i.p. only,7.8 ± 2.9%
same,Basal cells in tracheal epithelium,sensitized rats; Ova i.p. only,60.2 ± 3.4
same,Ciliated cells in tracheal epithelium,sensitized rats; Ova i.p. only,56.4 ± 3.8
same,Indeterminate cells in tracheal epithelium,sensitized rats; Ova i.p. only,1.4 ± 0.2
same,Pre-goblet cells in tracheal epithelium,sensitized rats; Ova i.p. only,13.8 ± 1.4
same,Secretory cells in tracheal epithelium,sensitized rats; Ova i.p. only,67.6 ± 7.0
same,Total cells in tracheal epithelium,sensitized rats; Ova i.p. only,204.8 ± 6.6
same,Goblet cells in tracheal epithelium,sensitized rats; Ova sensitization i.p. + i.t.,38.2 ± 6.3
same,Goblet cells in tracheal epithelium,sensitized rats; Ova sensitization i.p. only,5.4 ± 1.5
